The assay deals with murine/mouse full length CXCR6 (chemokine receptor 6), expressed on transduced murine CD8+ T cells (murine/mouse) (UniProt Q9EQ16). Put plainly: cell-based or functional assay.

The values that follow come from patent publication US20180256645A1.

Sequence of UniProt Q9EQ16 (Q9EQ16 1-350): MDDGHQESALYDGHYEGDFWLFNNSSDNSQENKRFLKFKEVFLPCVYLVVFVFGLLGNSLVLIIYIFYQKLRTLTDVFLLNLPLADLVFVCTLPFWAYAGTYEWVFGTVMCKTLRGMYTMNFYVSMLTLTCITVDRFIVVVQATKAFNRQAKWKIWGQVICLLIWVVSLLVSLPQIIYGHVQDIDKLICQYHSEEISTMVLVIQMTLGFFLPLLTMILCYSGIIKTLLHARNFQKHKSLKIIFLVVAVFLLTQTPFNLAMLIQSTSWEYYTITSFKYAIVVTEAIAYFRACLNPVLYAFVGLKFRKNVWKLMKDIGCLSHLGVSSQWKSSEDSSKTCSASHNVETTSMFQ

On to “recombinant CXCL16 (SEQ ID NO: 9) (Peprotech, Hamburg) (from UniProt Q8BSU2 27-114) (ligand)”, for which the internalisation and recycling of CXCR6 (live confocal fluorescence microscopy) stood at 30 min.
